The target of assay [1] is gH/gL glycoprotein on EBV virions produced by AKATA cells (Epstein-Barr virus) (UniProt P03231). The experiment in a line: cell-based or functional assay.
Assay [2] has as its target gLgH蛋白 (recombinant single-chain EBV M81 gL ectodomain - linker - gH ectodomain - 6xHis) (Epstein-Barr virus (M81 strain, KF373730.1)). Briefly: ELISA, gLgH coated at 2 μg/mL, antibody titrated from 1 μg/mL (Fig. 2). For orientation: ELISA stands for enzyme-linked immunosorbent assay.

In general, EC50 refers to the concentration giving half of the maximal effect.

In assay [1], AMMO1 (针对EB病毒gLgH糖蛋白的人源中和单抗) (antibody) showed an IC50 in the epithelial cell infection model (HNE1 cells, GFP-EBV, inhibition of GFP-positive cells) of 0.0828 µg/mL. The EC50 in assay [2] is 0.0255 µg/mL.

These data come from patent CN113372440A.
